We go through 1 molecule from US20240368239A1, “Novel bispecific protein and use thereof” (SL METAGEN, priority 2020, published 2024).

One may read the Cmax as the maximum level reached in the sampled fluid or tissue. A word on the Tmax: it is the time from dosing to the highest level.

“Also recorded” adds a separate entry of the source.

The target of one series is GLP-1 receptor (Homo sapiens, UniProt P43220). As to conditions: GLP-1 activity.
The subject of series [1] is B6 normal mice. The experiment in a line: Fluorescence spectrometry tissue distribution of Cy5.5-labelled substances. It is filed as in vivo. Here is the method:
Next, the present inventors performed an experiment in B6 normal mice in order to observe the distribution in each tissue and organ according to the administration of a bispecific fusion protein according to an embodiment of the present invention. Cy5.5 was used as a fluorophore for tracking the distribution after administration of each substance. Buffer exchange was performed for each substance to be administered, MG12-1, MG12-4, and GLP-1Fc homodimer with boric acid buffer (pH 8.5), and with reference to the protocol of the Cy5.5 labeling kit (GE, #PA15605) were allowed to react with an appropriate amount of Cy5.5 overnight under refrigeration conditions. Unreacted Cy5.5 in the reaction-completed substance was removed through the PBS substitution process, and whether Cy5.5 was reacted well was confirmed through the final SDS-PAGE. Each administered substance was diluted with 10% DMSO/PBS to have the same fluorescence intensity using an ELISA plate reader capable of measuring fluorescence intensity before being administered.

The subject of series [2] is B6 normal mice. Briefly: Small intestine weight and body weight (GLP-1-Fc homodimer, GLP-2-Fc homodimer, MG12-1, MG12-4). It is filed as in vivo. Particulars: SC twice a week, 4 doses; homodimers 10 nmol/kg, MG12 20 nmol/kg. The text has this: In addition, the present inventors conducted the same experiment as above while only varying the administered substance, in order to confirm whether the bispecific fusion proteins (MG12-1 and MG12-4) designed in a form other than MG12-5 also increase the small intestine weight and energy absorption rate of experimental animals. Specifically, PBS, 10 nmol/kg GLP-1-Fc homodimer, 10 nmol/kg GLP-2-Fc homodimer, 20 nmol/kg MG12-1, and 20 nmol/kg MG12-4 were subcutaneously administered. The drug was administered twice a week for a total of 4 times for 2 weeks. After 4 doses, the body weight was measured before autopsy, and the small intestine was excised after the autopsy and weighed. After the autopsy, the entire gastrointestinal tract of the mouse was separated, the mesentery and the pancreas were excised, and the area where the ileum and the cecum meet was cut to separate the small intestine and the large intestine. The separated small intestine was perfused and washed with 10% neutral formalin to remove the contents, and was weighed after removing the neutral formalin with an absorbent towel.

The test system of another series is Balb/c-nude mice. Briefly: PET-MRI tissue distribution of Zr89-labelled proteins. The class given is in vivo. As to conditions: Zr89 label, SC. The source says: Next, the present inventors performed an experiment in Balb/c-nude mice in order to observe the distribution in each tissue organ following the administration of a substance. Zr^89 was used as a radiotracer for tracking the distribution after administration of each substance. Each substance to be administered was labeled with Zr^89 as a reaction condition and a chelator selected through a preliminary test. The labeled Zr^89-protein was purified using a PD-10 column, and Zr^89 labeling efficiency and purity were confirmed using Radio TLC and SEC-HPLC. The labeling efficiency of the Zr^89-protein of 90% or more and the purity of 80% or more were determined to be appropriate, and the labeled protein was administered subcutaneously at 0.2 mCi/0.2 cc. Each administration substance was administered to three animals and static images for 20 minutes were obtained using PET-MRI at 1 hour, 6 hours, 24 hours, 48 hours, and 168 hours after injection. Through image analysis, the distribution of drugs as a function of time in the liver, small intestine, and large intestine was expressed as SUV (Standardized Uptake Value) and comparatively analyzed.

Series [3] is described as follows: In vivo pharmacokinetics profile after subcutaneous administration (GLP-1-Fc ELISA and GLP-2-Fc ELISA). As to conditions: rat, 1 mg/kg SC. More on the design: species or system male SD (Sprague Dawley) rats. How it is done:
First, each protein was administered to 3 male SD (Sprague Dawley) rats per group at a dose of 1 mg/kg by subcutaneous (SC) route. Before injection and after 0.5, 1, 5, 10, 24, 48, 72, 120, and 168 hours after the injection, blood was collected and stored at room temperature for 30 minutes to aggregate. After centrifuging the aggregated blood at 3,000 rpm for 10 minutes, serum of each sample was collected and stored in a cryogenic freezer. Analyses were performed by an assay designed to specifically detect the GLP-1 site and Fc in the administered protein (GLP-1-Fc ELISA) and an assay designed to specifically detect the GLP-2 site and Fc in the administered protein (GLP-2-Fc ELISA). Specifically, a method of loading a biological sample on a plate coated with an antibody that binds to mouse-derived human immunoglobulin G4 (IgG4) to detect the target protein using a biotinylated anti-GLP-1 antibody (GLP-1-Fc ELISA), and a method of loading a biological sample on a plate coated with a monoclonal antibody that specifically reacts with GLP-2, to detect the target protein using a secondary antibody having HRP conjugated to mouse-derived human immunoglobulin G4 (IgG4) (GLP-2-Fc ELISA) were used. The obtained and prepared serum samples were loaded with appropriate dilutions to be analyzed at a position on a straight line of the standard curve.
(An ELISA detects its analyte on a solid surface through an enzyme-linked reagent.)

The mark [4] stands for this setting: 24 hours after administration, Cy5.5 label.

Sequence of GLP-1 receptor (P43220 24-463, species assumed): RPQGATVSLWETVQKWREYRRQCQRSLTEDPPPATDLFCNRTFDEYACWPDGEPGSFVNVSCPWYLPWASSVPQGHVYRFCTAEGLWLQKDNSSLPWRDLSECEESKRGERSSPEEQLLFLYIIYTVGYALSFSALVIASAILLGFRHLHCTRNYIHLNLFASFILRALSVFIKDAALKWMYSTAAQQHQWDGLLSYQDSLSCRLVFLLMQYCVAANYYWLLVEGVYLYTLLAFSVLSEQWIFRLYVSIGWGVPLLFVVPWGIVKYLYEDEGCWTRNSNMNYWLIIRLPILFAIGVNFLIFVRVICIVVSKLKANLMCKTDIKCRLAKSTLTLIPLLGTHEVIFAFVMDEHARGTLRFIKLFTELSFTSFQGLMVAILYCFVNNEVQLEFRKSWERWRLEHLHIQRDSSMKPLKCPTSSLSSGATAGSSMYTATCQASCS
Description for GLP-1 receptor: After culturing the cells in a 37° C., 5% CO2 incubator for about 16 hours, the cells were treated with 20 μL/well of a test solution of various concentrations to be evaluated and allowed to react in a 37° C., 5% CO2 incubator for 5 hours. After the reaction was complete, the plate was treated with Bright-Glo™ assay reagent at 100 μL/well, and then was allowed react at room temperature for 2 minutes. After the reaction was completed, the plate was inserted into a Luminometer and the degree of bioluminescence was measured.

B1: MG12-1: Knob/hole Fc heterodimer: GLP-1 (SEQ 1), glycan linker, first fusion protein SEQ 24; GLP-2 (SEQ 17), second fusion protein SEQ 32 (protein)
chain 1: HGEGTFTSDVSSYLEGQAAKEFIAWLVKGRGGGGGSGGGGSGGGGSAKNTTAPATTRNTTRGGEEKKKEKEKEEQEERTHTCPPCPSHTQPLGVFLFPPKPKDTLMISRTPEVTCVVVDVSQEDPEVQFNWYVDGVEVHNAKTKPREEQFNSTYRVVSVLTVLHQDWLNGKEYKCKVSNKGLPSSIEKTISKAKGQPREPQVYTLPPCQEEMTKNQVSLWCLVKGFYPSDIAVEWESNGQPENNYKTTPPVLDSDGSFFLYSRLTVDKSRWQEGNVFSCSVMHEALHNHYTQKSLSLSLGK
chain 2: HGDGSFSDEMNTILDNLAARDFINWLIQTKITDGGGGSGGGGSGGGGSEKEKEEQEERTHTCPPCPSHTQPLGVFLFPPKPKDTLMISRTPEVTCVVVDVSQEDPEVQFNWYVDGVEVHNAKTKPREEQFNSTYRVVSVLTVLHQDWLNGKEYKCKVSNKGLPSSIEKTISKAKGQPREPQVCTLPPSQEEMTKNQVSLSCAVKGFYPSDIAVEWESNGQPENNYKTTPPVLDSDGSFFLVSRLTVDKSRWQEGNVFSCSVMHEALHNHYTQKSLSLSLGK
Consider B1, for which the “activity reduced due to glycosylation” value with GLP-1 receptor is reported as “about 11 times”. In addition, in the series on B6 normal mice [1] (setting [4]), the “Average fluorescence intensity, Brain” value worked out at 489; the “Average fluorescence intensity, Large intestine” value turned out to be 3702; the “Average fluorescence intensity, Small intestine” value worked out at 7320. Besides, the “distribution in the small intestine and the large intestine” value with B6 normal mice [1] (compared to GLP-1-Fc homodimer) was “larger”. Also, in the series on B6 normal mice [2], the small intestine weight result was “greater increase in small intestine weight than the GLP-2-Fc homodimer administered group; also recorded: superior effect of increasing small intestine weight” and the “weight change before autopsy (body weight)” value is “numerical increase in body weight”. In the series on Balb/c-nude mice, the “distribution to the liver (SUV)” value is “reduced or showed no difference compared to Fc”; the “distribution to the small intestine and large intestine (SUV)” value was “significantly high compared to that of GLP-1-Fc homodimer and GLP-2-Fc homodimer”. Further, in series [3] (GLP-1-Fc ELISA (Table 5)), the AUClast was found to be 13919.8 ± 824.9 ng·h/mL, the Cmax is recorded as 442.2 ± 20.8 ng/mL, the Half-life stood at 16.5 ± 6.3 h and the Tmax came to 10 h. Moreover, in series [3] (GLP-2-Fc ELISA (Table 6)), the AUClast was 78639.0 ± 11205.3 ng·h/mL, the Cmax turned out to be 1136.7 ± 261.0 ng/mL, the Half-life is 43.7 ± 1.8 h and the Tmax was found to be 24.0 ± 0.0 h.
